For assay [1], the target named is T1, human IFNAR1, full length (IFNAR1-aa1-557) (human) (UniProt P17181).
T1 sequence (looked up): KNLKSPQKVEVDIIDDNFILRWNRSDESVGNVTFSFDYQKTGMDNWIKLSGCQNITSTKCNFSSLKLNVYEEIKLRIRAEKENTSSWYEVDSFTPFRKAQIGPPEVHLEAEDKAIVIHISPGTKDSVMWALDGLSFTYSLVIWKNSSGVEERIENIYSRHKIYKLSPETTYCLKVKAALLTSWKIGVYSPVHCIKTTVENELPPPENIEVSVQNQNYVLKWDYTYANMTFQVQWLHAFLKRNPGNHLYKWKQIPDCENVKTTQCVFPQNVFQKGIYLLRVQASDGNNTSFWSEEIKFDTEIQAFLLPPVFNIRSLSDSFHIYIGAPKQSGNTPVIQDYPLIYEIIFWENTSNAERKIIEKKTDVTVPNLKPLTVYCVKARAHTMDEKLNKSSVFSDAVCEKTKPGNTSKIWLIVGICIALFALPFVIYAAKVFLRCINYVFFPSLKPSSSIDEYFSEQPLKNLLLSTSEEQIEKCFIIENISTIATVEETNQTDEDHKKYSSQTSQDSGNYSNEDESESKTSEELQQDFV
Put plainly: cell-based or functional assay.

The target in the next assay is T2, Human IFNAR1 SD1-SD4 (human, UniProt P17181 28-436, limits assumed).
T2 construct: domain: SD1-SD4; Antigen injected in the Biacore assay
T2 sequence (looked up): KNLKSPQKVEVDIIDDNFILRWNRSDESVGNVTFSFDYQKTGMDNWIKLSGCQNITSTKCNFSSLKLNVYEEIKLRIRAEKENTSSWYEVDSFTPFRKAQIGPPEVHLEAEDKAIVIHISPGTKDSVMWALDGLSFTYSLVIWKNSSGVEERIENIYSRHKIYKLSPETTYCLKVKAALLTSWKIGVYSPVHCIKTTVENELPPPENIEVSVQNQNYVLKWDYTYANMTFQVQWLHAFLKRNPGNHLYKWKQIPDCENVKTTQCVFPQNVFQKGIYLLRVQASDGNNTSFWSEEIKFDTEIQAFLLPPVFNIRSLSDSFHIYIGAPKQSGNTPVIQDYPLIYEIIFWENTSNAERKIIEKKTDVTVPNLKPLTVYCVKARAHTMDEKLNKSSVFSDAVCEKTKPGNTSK
Put plainly: SPR (Biacore 8K), antibody captured on anti-human IgG Fc, antigen injected.

The target of the next assay is T3, human IFNAR1 ECD (human, UniProt P17181 28-436).
T3 construct: extracellular domain; Coated on ELISA plates at 5 ug/ml
T3 sequence (looked up): T2 sequence (looked up)
As to the kind of experiment: ELISA, plate coated with human IFNAR1 ECD, anti-human IgG Fc-peroxidase, OD450. (In general: An ELISA detects its analyte on a solid surface through an enzyme-linked reagent.)

The target in assay [2] is T4, human IFNAR1, full length (IFNAR1-aa1-557) (human, UniProt P17181 28-557).
T4 construct: whole, on cells; Overexpressed on HEK293T cells from pIRES2-EGFP-IFNAR1; also used here for the human IFNAR1 of the IFN-I reporter cells and the cells of the virus assays; also called IFNAR1-WT; wild type IFNAR1
T4 sequence (looked up): T1 sequence (looked up)
Put plainly: flow cytometry on cells expressing human IFNAR1, MFI of PE. (In general: Flow cytometry measures light scatter and fluorescence of single cells or particles in a stream.)

The target of assay [3] is T4, human IFNAR1, full length …. The assay is described as above. The source holds these as a separate data set.
For assay [4], the target named is T1, human IFNAR1, full length (IFNAR1-aa1-557) (human). Put plainly: cell-based or functional assay. The source holds these as a separate data set.

For orientation: Kd means the equilibrium constant for the complex coming apart. What is called koff is the first-order rate constant of dissociation. High values mean fast dissociation, low ones slow dissociation. The term kon denotes a measure of how fast the partners come together. The term EC50 denotes the concentration giving half of the maximal effect. For orientation: EC50 (read off the curve) means the midpoint of the concentration-response curve. A higher EC50 (read off the curve) goes with a need for much substance.

Numbering of substitutions follows the chain as printed. Names and notes keep the numbering of the source. Read-outs that look alike come from different tables or passages of the source. A value given as a limit tells only on which side of the number the result lay.

Method for Human IFNAR1 SD1-SD4: Preparation of a CM5 chip surface: Using HBS-EP+ (10 mM HEPES, 150 mM NaCl, 3 mM EDTA, 0.05% surfactant P20) as running buffer, both channel 1&2 of a CM5 sensor chip (GE Healthcare, BR-1000-30) were activated with a fresh mixture of 50 mM NHS and 200 mM EDC (1:1). Anti-human IgG Fc, 20 μg/ml in 10 mM NaOAc buffer (pH 5.0), was then passed over the activated surface of the two flow cells in each channel at 10 l/min (target around 10000 RU). […] Low flow rate was maintained over 2 hours for the equilibrium of the immobilized protein.
Measurement of binding kinetics: Each antibody was captured in flow cell FC2 in channel 1&2 around 250 RU respectively, using FC1 as the reference cell, followed by injection of antigen samples at varying concentrations. The signals with captured antibody subtracted from that without captured antibody were calculated with Biacore 8K evaluation software. The running buffer was HBS-EP+(10 mM HEPES, 150 mM NaCl, 3 mM EDTA, 0.05% surfactant P20).
Method for human IFNAR1 ECD: 96-well plates were coated with 100ul 5 ug/ml human IFNAR1 ECD in 1×PBS and incubate at 4° C. overnight. The plates were then washed with PBST (1×PBS+0.05% Tween20) for 3 times and blocked with the blocking buffer (1×PBS+0.05% Tween20+1% BSA) at RT for 2 hr. […] The plates were washed with PBST for 3 times, followed by addition of antibody (Anti-Human IgG (Fc specific)-Peroxidase antibody produced in goat, ZSGB-BIO) at 100ul/well and then incubated at RT for 1 hr. The plates were washed with PBST 5 times and then 100ul/well TMB was added and after 15 minutes, the plates were quenched with 50ul/well 2N H₂SO₄. The plates were read with Molecular device spectra max at 450 nm.

“Human IFNω (from UniProt P05000 24-195) (ligand)” came in with a percentage of GFP positive cells in IFN-I reporter cells, 50 pg/ml IFNω against Mock control in assay [1] above 5 fold.

As for “Human IFNβ (from UniProt P01574 22-187) (ligand)”, in assay [1], the percentage of GFP positive cells in IFN-I reporter cells, 50 pg/ml IFNβ against Mock control is above 5 fold.

B1: Hu4-14 (antibody, V domains shown)
VH: QVQLVQSGAEVKKPGASVKVSCKASGYTFTSYWMNWVRQAPGQGLEWMGKIDPSDSETHFNQKFRDRVTLTVDKSTSTVYMELSSLRSEDTAVYYCARGGRISFDYDAALDYWGQGTLVTVSS
VL: DIQMTQSPSSLSASVGDRVTITCKSSEVIYNRLAWYQQKPGNAPKLLISGATTLESGVPSRFSGSGSGKDYTLTISSLQPEDFATYYCQQYWNKPFTFGQGTKLEIK
notes: Humanized 7G4 variant
As to B1, in the assay with Human IFNAR1 SD1-SD4, the affinity, expressed as Kd, was 461 pM; the off-rate (koff) amounted to 0.000214 s⁻¹; the kon was 465000 M⁻¹ s⁻¹. In the assay with human IFNAR1 ECD, this molecule came in with a 50% effective concentration (EC50) of 0.00227 µg/mL and a Top of 3.1 OD450.

B2: Hu4-6-mut-2 (antibody, V domains shown)
VH: B1 VH
VL: B1 VL with N42K, S49Y, T53S, S56T
notes: Hu4-6 with T53S and S56T in VL (LCDR2)
As to B2, in assay [2], the “EC50 (read off the curve)” value is around 0.06 µg/mL.

B3: Hu4-6-mut-3 (antibody, V domains shown)
VH: B1 VH with A108G
VL: B1 VL with N42K, S49Y, T53S, S56T
notes: Hu4-6 with A108G in VH and T53S and S56T in VL
Regarding B3, the “EC50 (read off the curve)” value in assay [2] was around 0.06 µg/mL.

B4: Hu4-6 (antibody, V domains shown)
VH: B1 VH
VL: B1 VL with N42K, S49Y
notes: Humanized 7G4 variant
Consider B4, for which, in the assay with Human IFNAR1 SD1-SD4, the Kd came out at 633 pM, the koff was 0.000281 s⁻¹ and the kon is 444000 M⁻¹ s⁻¹. Moreover, the 50% effective concentration (EC50 (read off the curve)) in assay [2] was around 0.06 µg/mL. Moreover, in assay [3], the “EC50 (read off the curve)” value is around 0.04 µg/mL. In the assay with human IFNAR1 ECD, this molecule showed an EC50 of 0.00321 µg/mL and a Top of 3.35 OD450.

B5: Hu4-13 (antibody, V domains shown)
VH: B1 VH with L70M, V72R, K74T
VL: B1 VL
notes: Humanized 7G4 variant
Regarding B5, in the assay with Human IFNAR1 SD1-SD4, binding was put at a Kd of 671 pM, the koff is 0.000301 s⁻¹ and the kon was 449000 M⁻¹ s⁻¹. Moreover, the “EC50 (read off the curve)” value in assay [3] is around 0.04 µg/mL. In addition, in the assay with human IFNAR1 ECD, the midpoint of the response, the EC50, lay at 0.00327 µg/mL and the Top came to 3.4 OD450.

B6: Hu4-6-mut-1 (antibody, V domains shown)
VH: B1 VH with A108G
VL: B1 VL with N42K, S49Y
notes: Hu4-6 with A108G in VH (HCDR3)
For the molecule B6, in assay [2], the “EC50 (read off the curve)” value is around 0.07 µg/mL.

B7: Hu4-15 (antibody, V domains shown)
VH: B1 VH with M48I
VL: B1 VL
notes: Humanized 7G4 variant
In the case of B7, in the assay with Human IFNAR1 SD1-SD4, the affinity, expressed as Kd, was 442 pM; the koff is 0.000209 s⁻¹; the kon is 472000 M⁻¹ s⁻¹. In the assay with human IFNAR1 ECD, the response was half-maximal at 0.00284 µg/mL (EC50) and the Top turned out to be 3.46 OD450.

B8: Hu4-16 (antibody, V domains shown)
VH: B1 VH with A40R, M48I
VL: B1 VL
notes: Humanized 7G4 variant
As for B8, in the assay with Human IFNAR1 SD1-SD4, binding was characterised by a dissociation constant (Kd) of 466 pM, the koff turned out to be 0.00021 s⁻¹ and the kon was determined as 451000 M⁻¹ s⁻¹. In the assay with human IFNAR1 ECD, the EC50 came to 0.00315 µg/mL and the Top was 3.31 OD450.

B9: IFNAR1 monoclonal antibody 10C2 (antibody, from another filing, V domains shown)
VH: QIQLVQSGPELKKPGETVKISCKASGYTFTNYGMNWVKQAPGKGLKWMGWINTYTGEPTYSDDFKGRFAFSLETSASTANLQINNLKDEDAATYFCAREGAIYYGDYVYFGVWGAGTTVTVSS
VL: DIVMTQSQKFMSTSVGDRVSITCKASQNVGTAVAWYQEKPGQSPKLLIYSASNRYTGVPDRFTGSGSGTAFTLTISNMQSEDLADYFCQQYYNYPLTFGAGTKLEVKR
As for B9, in assay [4], the blocking effect on GFP expression induced by IFNα1 in IFN-I reporter cells (++ = greater than 80%) was above 80%, the blocking effect on GFP expression induced by IFNα2a in IFN-I reporter cells (++ = greater than 80%) was above 80%, the blocking effect on GFP expression induced by IFNα2b in IFN-I reporter cells (++ = greater than 80%) was above 80% and the blocking effect on GFP expression induced by IFNα4 in IFN-I reporter cells (++ = greater than 80%) was above 80%. In assay [4], this molecule had a blocking effect on GFP expression induced by IFNα5 in IFN-I reporter cells (++ = greater than 80%) above 80%, a blocking effect on GFP expression induced by IFNα6 in IFN-I reporter cells (++ = greater than 80%) above 80%, a blocking effect on GFP expression induced by IFNα7 in IFN-I reporter cells (++ = greater than 80%) above 80% and a blocking effect on GFP expression induced by IFNα8 in IFN-I reporter cells (++ = greater than 80%) above 80%. Moreover, in assay [4], the blocking effect on GFP expression induced by IFNα10 in IFN-I reporter cells (++ = greater than 80%) is above 80%, the blocking effect on GFP expression induced by IFNα14 in IFN-I reporter cells (++ = greater than 80%) is above 80%, the blocking effect on GFP expression induced by IFNα16 in IFN-I reporter cells (++ = greater than 80%) was above 80% and the blocking effect on GFP expression induced by IFNα17 in IFN-I reporter cells (++ = greater than 80%) was above 80%. Moreover, in assay [4], the blocking effect on GFP expression induced by IFNα21 in IFN-I reporter cells (++ = greater than 80%) is above 80%; the blocking effect on GFP expression induced by IFNω in IFN-I reporter cells (++ = greater than 80%) is above 80%; the fold decrease in percentage of GFP positive reporter cells with serum from SLE patients is 3 fold; the percentage of GFP positive reporter cells with human IFNβ and 10 µg/mL antibody stood at 20%.

B10: IFNAR1 monoclonal antibody 10C9 (antibody, from another filing, V domains shown)
VH: QIQLVQSGPELKKPGETVKISCKASGYTFTNYGVNWMKQAPGKGLKWMGWINTYTGEPTYADDFKGRFAFSLETSASTAYLQINNLKNEDTATYFCAREGVYYYGDWAWLAYWGQGTLVTVSA
VL: DIVMTQSQKFISTSVGDRVSVTCKASQNVGTNVAWYQQKPGQSPKTLIYSTSYRYNGVPDRFTGSGSGTDFTLTISNVQSEDLAEYFCQQYNSYYTFGGGTKLEIK
With B10, in assay [4], the blocking effect on GFP expression induced by IFNα1 in IFN-I reporter cells (++ = greater than 80%) was above 80%, the blocking effect on GFP expression induced by IFNα2a in IFN-I reporter cells (++ = greater than 80%) is above 80%, the blocking effect on GFP expression induced by IFNα2b in IFN-I reporter cells (++ = greater than 80%) was above 80% and the blocking effect on GFP expression induced by IFNα4 in IFN-I reporter cells (++ = greater than 80%) is above 80%. Moreover, in assay [4], the blocking effect on GFP expression induced by IFNα5 in IFN-I reporter cells (++ = greater than 80%) was above 80%, the blocking effect on GFP expression induced by IFNα6 in IFN-I reporter cells (++ = greater than 80%) is above 80%, the blocking effect on GFP expression induced by IFNα7 in IFN-I reporter cells (++ = greater than 80%) was above 80% and the blocking effect on GFP expression induced by IFNα8 in IFN-I reporter cells (++ = greater than 80%) was above 80%. Further, in assay [4], the blocking effect on GFP expression induced by IFNα10 in IFN-I reporter cells (++ = greater than 80%) was above 80%, the blocking effect on GFP expression induced by IFNα14 in IFN-I reporter cells (++ = greater than 80%) is above 80%, the blocking effect on GFP expression induced by IFNα16 in IFN-I reporter cells (++ = greater than 80%) was above 80% and the blocking effect on GFP expression induced by IFNα17 in IFN-I reporter cells (++ = greater than 80%) was above 80%. In assay [4], this molecule yielded a blocking effect on GFP expression induced by IFNα21 in IFN-I reporter cells (++ = greater than 80%) above 80% and a blocking effect on GFP expression induced by IFNω in IFN-I reporter cells (++ = greater than 80%) above 80%.

B11: 7G4 Chimeric (antibody, V domains shown)
VH: QVQLQQPGAELVKPGAPVKLSCKASGYTFTSYWMNWVRQRPGRGLEWIGKIDPSDSETHFNQKFRDKATLTVDKSSTTAYIQLSSLTSEDSAVYYCARGGRISFDYDAALDYWGQGTSVTVSS
VL: DILMTQSSSSFSVSLGDRVTITCKSSEVIYNRLAWFQQKPGNAPRLLISGATTLESGFPSRFSGSGSGKDYTLSITSLQIEDVSTYYCQQYWNKPFTFGSGTKLEVK
With B11, in the assay with Human IFNAR1 SD1-SD4, the affinity, expressed as Kd, was 765 pM; the koff amounted to 0.000349 s⁻¹; the kon worked out at 456000 M⁻¹ s⁻¹. The half-maximal effective concentration (EC50 (read off the curve)) in assay [3] is around 0.04 µg/mL. In addition, in the assay with human IFNAR1 ECD, the EC50 was determined as 0.00465 µg/mL and the Top was 3.27 OD450.
